From patent US20200147161A1 (University of Texas, published 2020) come the findings set out here.

The target in test [1] is T1, HLA-A2 on T2 cells (human).
T1 construct: The text of the assay says only 'HLA-A2'; also called HLA-A2 allele
Briefly: HLA-A2 stabilisation on T2 cells, 18 hr, flow cytometry, fluorescence index. The method, then:
The predicted peptides were synthesized and co-cultured with T2 cells with a series of diluted concentrations. DMSO without peptide or with the same concentration of negative binding to HLA-A2 peptide were used as control. After 18 hr incubation, the HLA-A2 expression was detected by flow cytometer. The fluorescence index (FI) was calculated as follows: FI=(mean fluorescence with the given peptide−mean fluorescence without peptide)/(mean fluorescence without peptide). […] The VCX54 epitope is found in all members of the VCX/Y family including VCX1, VCX2, VCX3A, VCX3B, or VCY which are expressed in various lung cancer cells (FIG. 1B).
(Flow cytometry measures light scatter and fluorescence of single cells or particles in a stream.)

The target of test [2] is T1, HLA-A2 on T2 cells. Briefly: HLA-A2 stabilisation on T2 cells, 18 hours, flow cytometry, FI index. As for the experimental part: The peptides were synthesized and pulsed with T2 cells with a series of diluted concentrations for 18 hours. After incubation, the HLA-A2 expression level of T2 was detected by flow cytometry and the FI index was calculated. The M27 peptide was used as a weak binding peptide control and the M26 peptide was used as a strong binding peptide control.

Test [3] has as its target T2, VCY; VCY-37 peptide peptide on HLA-A*02:01 (human).
T2 peptide: KVAEKGEAV
Briefly: multimer staining.

The target in test [4] is T3, VCX/Y family (VCX1, VCX2, VCX3A, VCX3B, VCY); VCX54 peptide peptide on HLA-A*02:01 (human).
T3 peptide: GAATKMAAV
Description: multimer staining.

B1: VCX54 peptide (GAATKMAAV) (peptide)
peptide: GAATKMAAV
notes: Synthetic 9-mer shared by all VCX/Y family members; added to T2 cells in the HLA-A2 stabilisation assay; also called GAATKMAAV (54)
For the molecule B1, the binding result with HLA-A2 on T2 cells [1] was “binds”.

For KMAAVEAPEA (Synthetic 10-mer) [VCX-58 peptide (KMAAVEAPEA)], the binding result with HLA-A2 on T2 cells [2] is “binds”. On the same count and under the same terms, with KVAEKGEAV (Synthetic 9-mer from VCY) [VCY-37 peptide (KVAEKGEAV)] the entry was “binds”.

B2: VCY-37 CTL TCR (TCR, V domains shown)
Valpha: AQKVTQAQTEISVVEKEDVTLDCVYETRDTTYYLFWYKQPPSGELVFLIRRNSFDEQNEISGRYSWNFQKSTSSFNFTITASQVVDSAVYFCALSLLSYNTDKLIFGTGTRLQVFP
Vbeta: DTGVSQDPRHKITKRGQNVTFRCDPISEHNRLYWYRQTLGQGPEFLTYFQNEAQLEKSRLLSDRFSAERPKGSFSTLEIQRTEQGDSAMYLCASSTPGPSGANVLTFGAGSRLTVL
For B2, the binding result in test [3] was “recognises”.

B3: VCX54 CTL Clone-7 TCR (TCR, V domains shown)
Valpha: AQKITQTQPGMFVQEKEAVTLDCTYDTSDPSYGLFWYKQPSSGEMIFLIYQGSYDQQNATEGRYSLNFQKARKSANLVISASQLGDSAMYFCAMITSGNTGKLIFGQGTTLQVKP
Vbeta: AAGVIQSPRHLIKEKRETATLKCYPIPRHDTVYWYQQGPGQDPQFLISFYEKMQSDKGSIPDRFSAQQFSDYHSELNMSSLELGDSALYFCASSPPGGGRTEAFFGQGTRLTVV
Consider B3, for which the binding result in test [4] is reported as “recognises”.
